Experimental findings from US20130225488A1 (CADILA HEALTHCARE, published 2013) are described below.

One test concerns the target Human glucagon receptor (human, UniProt P47871 26-477). Put plainly: cell-based or functional assay.
Another test deals with Human GLP-1 receptor (human, UniProt P43220 24-463). Put plainly: cell-based or functional assay.

Where no end group is shown, it is not given here. [ ]: non-standard residue; d: D form. Ac3c = NC1(C(=O)O)CC1; Aib = CC(C)(N)C(=O)O

Human GLP-1 receptor, sequence (P43220 24-463): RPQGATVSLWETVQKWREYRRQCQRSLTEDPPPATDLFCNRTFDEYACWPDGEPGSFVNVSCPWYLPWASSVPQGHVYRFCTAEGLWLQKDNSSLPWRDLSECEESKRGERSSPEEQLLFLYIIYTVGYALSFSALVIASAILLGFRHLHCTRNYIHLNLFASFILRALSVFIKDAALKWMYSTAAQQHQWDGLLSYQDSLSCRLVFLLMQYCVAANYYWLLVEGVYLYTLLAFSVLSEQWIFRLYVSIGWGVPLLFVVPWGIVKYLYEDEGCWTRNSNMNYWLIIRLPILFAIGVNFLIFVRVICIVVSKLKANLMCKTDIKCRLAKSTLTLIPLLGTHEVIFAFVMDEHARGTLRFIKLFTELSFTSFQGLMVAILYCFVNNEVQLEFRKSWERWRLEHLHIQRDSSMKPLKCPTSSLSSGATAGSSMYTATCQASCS

Consider H[Aib]QGTFTSD[Bip(OMe)][Bip(2CF3)] [Seq. ID. No. 16: H-Aib-QGTFTSD-Bip(OMe)-Bip(2CF3)], for which, in the test with Human glucagon receptor, the “cAMP production with saturated glucagon peptide; test compound 1 nM” value (from here on “cAMP production … test compound 1 nM”) was 4 pmol/ml/µg prt, the “cAMP production with saturated glucagon peptide; test compound 10 nM” value (shortened to “cAMP production … test compound 10 nM”) is 2 pmol/ml/µg prt, the “cAMP production with saturated glucagon peptide; test compound 100 nM” value (“cAMP production … test compound 100 nM” for short) is 0 pmol/ml/µg prt and the “cAMP production with saturated glucagon peptide; test compound 10 µM” value (“cAMP production … test compound 10 µM” for short) came out at 0 pmol/ml/µg prt. In addition, the “cAMP production with saturated glucagon peptide; test compound '1 nM'” value (“cAMP production … test compound '1 nM'” below) in the test with Human glucagon receptor stood at 0 pmol/ml/µg prt. For the same molecule, in the test with Human GLP-1 receptor, the “cAMP release, % activity with respect to control; test compound 1 nM” value (“cAMP release, % activity … test compound 1 nM” below) is 69%; the “cAMP release, % activity with respect to control; test compound 10 nM” value (shortened to “cAMP release, % activity … test compound 10 nM”) came to 98%; the “cAMP release, % activity with respect to control; test compound 100 nM” value (from here on “cAMP release, % activity … test compound 100 nM”) turned out to be 99%; the “cAMP release, % activity with respect to control; test compound 1 µM” value (from here on “cAMP release, % activity … test compound 1 µM”) amounted to 99%. Also, in the test with Human GLP-1 receptor, the “cAMP release, % activity with respect to control; test compound 10 µM” value (“cAMP release, % activity … test compound 10 µM” below) was 99%.
H[Aib]QGTFTSD[Bip(OMe)][Bip(2F)] [Seq. ID. No. 15: H-Aib-QGTFTSD-Bip(OMe)-Bip(2F)]: in the test with Human glucagon receptor, the “cAMP production … test compound 1 nM” value is 6 pmol/ml/µg prt, the “cAMP production … test compound 10 nM” value stood at 5 pmol/ml/µg prt, the “cAMP production … test compound 100 nM” value came to 2 pmol/ml/µg prt and the “cAMP production … test compound 10 µM” value worked out at 0 pmol/ml/µg prt. In the test with Human glucagon receptor, the “cAMP production … test compound '1 nM'” value came out at 0 pmol/ml/µg prt. Also, in the test with Human GLP-1 receptor, the “cAMP release, % activity … test compound 1 nM” value amounted to 66%; the “cAMP release, % activity … test compound 10 nM” value came out at 97%; the “cAMP release, % activity … test compound 100 nM” value worked out at 99%; the “cAMP release, % activity … test compound 1 µM” value amounted to 99%. For the same molecule, the “cAMP release, % activity … test compound 10 µM” value with Human GLP-1 receptor worked out at 99%.
Turning to H[Aib]QGTFTSD[Bip(OMe)][Bip(Pyr)] [Seq. ID. No. 14: H-Aib-QGTFTSD-Bip(OMe)-Bip(Pyr)], in the test with Human glucagon receptor, the “cAMP production … test compound 1 nM” value is 9 pmol/ml/µg prt, the “cAMP production … test compound 10 nM” value turned out to be 6 pmol/ml/µg prt, the “cAMP production … test compound 100 nM” value is 5 pmol/ml/µg prt and the “cAMP production … test compound 10 µM” value was 0 pmol/ml/µg prt. For the same molecule, the “cAMP production … test compound '1 nM'” value with Human glucagon receptor stood at 3 pmol/ml/µg prt. Also, in the test with Human GLP-1 receptor, the “cAMP release, % activity … test compound 1 nM” value is 62%; the “cAMP release, % activity … test compound 10 nM” value is 94%; the “cAMP release, % activity … test compound 100 nM” value amounted to 99%; the “cAMP release, % activity … test compound 1 µM” value came out at 99%. In addition, the “cAMP release, % activity … test compound 10 µM” value with Human GLP-1 receptor is 99%.
As to HAQGTFTSD[Bip(OMe)][Bip(2F)] [Seq. ID. No. 11: HAQGTFTSD-Bip(OMe)-Bip(2F)], in the test with Human glucagon receptor, the “cAMP production … test compound 1 nM” value was found to be 10 pmol/ml/µg prt, the “cAMP production … test compound 10 nM” value stood at 8 pmol/ml/µg prt, the “cAMP production … test compound 100 nM” value stood at 6 pmol/ml/µg prt and the “cAMP production … test compound 10 µM” value amounted to 0 pmol/ml/µg prt. Also, the “cAMP production … test compound '1 nM'” value in the test with Human glucagon receptor was found to be 2 pmol/ml/µg prt. In addition, in the test with Human GLP-1 receptor, the “cAMP release, % activity … test compound 1 nM” value stood at 51%; the “cAMP release, % activity … test compound 10 nM” value turned out to be 86%; the “cAMP release, % activity … test compound 100 nM” value was 91%; the “cAMP release, % activity … test compound 1 µM” value was 99%. In addition, in the test with Human GLP-1 receptor, the “cAMP release, % activity … test compound 10 µM” value was found to be 99%.
As for HAQGTFTSD[Bip(OMe)][Bip(2Me)] (not fully specified (C-terminus); printed as HAQGTFTSD-Bip(OMe)-Bip(2Me)) [Seq. ID. No. 9: HAQGTFTSD-Bip(OMe)-Bip(2Me)], in the test with Human glucagon receptor, the “cAMP production … test compound 1 nM” value turned out to be 18 pmol/ml/µg prt, the “cAMP production … test compound 10 nM” value was found to be 16 pmol/ml/µg prt, the “cAMP production … test compound 100 nM” value amounted to 12 pmol/ml/µg prt and the “cAMP production … test compound 10 µM” value was 6 pmol/ml/µg prt. In the test with Human glucagon receptor, the “cAMP production … test compound '1 nM'” value was 8 pmol/ml/µg prt. Further, in the test with Human GLP-1 receptor, the “cAMP release, % activity … test compound 1 nM” value was 38%; the “cAMP release, % activity … test compound 10 nM” value stood at 77%; the “cAMP release, % activity … test compound 100 nM” value amounted to 85%; the “cAMP release, % activity … test compound 1 µM” value amounted to 94%. In the test with Human GLP-1 receptor, the “cAMP release, % activity … test compound 10 µM” value was 97%.
For the molecule H[Aib]QGTFTSD[Bip(OMe)][Bip(2Me)] [Seq. ID. No. 13: H-Aib-QGTFTSD-Bip(OMe)-Bip(2Me)], in the test with Human glucagon receptor, the “cAMP production … test compound 1 nM” value turned out to be 10 pmol/ml/µg prt, the “cAMP production … test compound 10 nM” value was determined as 8 pmol/ml/µg prt, the “cAMP production … test compound 100 nM” value amounted to 6 pmol/ml/µg prt and the “cAMP production … test compound 10 µM” value came to 1 pmol/ml/µg prt. The “cAMP production … test compound '1 nM'” value with Human glucagon receptor was 4 pmol/ml/µg prt. Further, in the test with Human GLP-1 receptor, the “cAMP release, % activity … test compound 1 nM” value was found to be 60%; the “cAMP release, % activity … test compound 10 nM” value is 92%; the “cAMP release, % activity … test compound 100 nM” value was found to be 98%; the “cAMP release, % activity … test compound 1 µM” value was 99%. Further, the “cAMP release, % activity … test compound 10 µM” value with Human GLP-1 receptor was found to be 99%.
In the case of H[Ac3c]QGTFTSD[Bip(OMe)][Bip(Pyr)] [Seq. ID. No. 18: H-(ACP)-QGTFTSD-Bip(OMe)-Bip(Pyr)], in the test with Human glucagon receptor, the “cAMP production … test compound 1 nM” value came to 0 pmol/ml/µg prt, the “cAMP production … test compound 10 nM” value amounted to 0 pmol/ml/µg prt, the “cAMP production … test compound 100 nM” value amounted to 0 pmol/ml/µg prt and the “cAMP production … test compound 10 µM” value is 0 pmol/ml/µg prt. The “cAMP production … test compound '1 nM'” value with Human glucagon receptor is 0 pmol/ml/µg prt. Besides, in the test with Human GLP-1 receptor, the “cAMP release, % activity … test compound 1 nM” value came to 86%; the “cAMP release, % activity … test compound 10 nM” value worked out at 99%; the “cAMP release, % activity … test compound 100 nM” value is 99%; the “cAMP release, % activity … test compound 1 µM” value came out at 99%. The “cAMP release, % activity … test compound 10 µM” value in the test with Human GLP-1 receptor turned out to be 99%.
Regarding H[Ac3c]QGTFTSD[Bip(OMe)][Bip(2Me)] [Seq. ID. No. 17: H-(ACP)-QGTFTSD-Bip(OMe)-Bip(2Me)], in the test with Human glucagon receptor, the “cAMP production … test compound 1 nM” value amounted to 2 pmol/ml/µg prt, the “cAMP production … test compound 10 nM” value worked out at 0 pmol/ml/µg prt, the “cAMP production … test compound 100 nM” value stood at 0 pmol/ml/µg prt and the “cAMP production … test compound 10 µM” value was found to be 0 pmol/ml/µg prt. Further, the “cAMP production … test compound '1 nM'” value in the test with Human glucagon receptor is 0 pmol/ml/µg prt. In the test with Human GLP-1 receptor, the “cAMP release, % activity … test compound 1 nM” value worked out at 78%; the “cAMP release, % activity … test compound 10 nM” value was found to be 99%; the “cAMP release, % activity … test compound 100 nM” value is 99%; the “cAMP release, % activity … test compound 1 µM” value stood at 99%. Also, the “cAMP release, % activity … test compound 10 µM” value in the test with Human GLP-1 receptor was determined as 99%.
